In patent US20230365714A1 (published 2023):

Molecular target: T1, his-tagged ROR2 extracellular domain (ROR2-ECD, G&P Biosciences, cat. no. FCL0192) (human, UniProt Q01974 34-403)
T1 construct: Bought protein; also called human ROR2-ECD; recombinant human ROR2-ECD; not shown: his tag
Experiment: BLI (Octet), antibody on anti-human IgG Fc sensor, ROR2-ECD 1.56-100 nM as analyte

T1 sequence (Q01974 34-403): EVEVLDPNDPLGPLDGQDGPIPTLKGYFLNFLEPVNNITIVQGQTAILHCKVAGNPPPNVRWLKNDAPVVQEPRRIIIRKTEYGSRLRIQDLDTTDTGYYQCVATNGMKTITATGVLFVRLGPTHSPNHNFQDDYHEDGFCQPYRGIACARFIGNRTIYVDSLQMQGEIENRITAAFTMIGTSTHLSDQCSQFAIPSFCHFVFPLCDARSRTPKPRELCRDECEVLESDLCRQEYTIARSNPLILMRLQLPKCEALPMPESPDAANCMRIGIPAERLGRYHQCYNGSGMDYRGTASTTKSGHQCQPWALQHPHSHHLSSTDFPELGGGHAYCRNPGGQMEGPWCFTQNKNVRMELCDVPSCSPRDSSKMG

Binder | Kd [nM] | koff [s⁻¹] | kon [M⁻¹ s⁻¹]
IgG1-ROR2-A-HC5LC2-FEAR (antibody, V domains shown, Humanized variant) VH: EVQLLESGGGLVQPGGSLRLSCAASGFSLSSYSMSWVRQAPGKGLEWIGVIYVNSKTWYANWAKGRFTISKDNSKNTVYLQMNSLRAEDTATYYCARGDAGYTTNSWLWGQGTLVTVSS VL: AFELTQSPSSLSASVGDRVTITCQASESIDNYLSWYQQKPGKAPKLLIYQAFKLASGVPSRFRGSGSGTDFTLTISSLQSEDFATYYCQSYSGISTTAFGGGTEVVIK | 1.8 | 0.00097 | 550000
IgG1-ROR2-A-HC1LC2-FEAR (antibody, V domains shown, Humanized variant) VH: QSVLESGGGLVQPGGSLRLSCTVSGFSLSSYSMSWVRQAPGKGLEWIGVIYVNSKTWYANWAKGRFTISKTSTTVDLKITSPTAEDTATYFCARGDAGYTTNSWLWGQGTLVTVSS VL: AFELTQSPSSLSASVGDRVTITCQASESIDNYLSWYQQKPGKAPKLLIYQAFKLASGVPSRFRGSGSGTDFTLTISSLQSEDFATYYCQSYSGISTTAFGGGTEVVIK | 1.9 | 0.0011 | 590000
IgG1-ROR2-A-HC7LC1-FEAR (antibody, V domains shown, Humanized variant) VH: EVQLLESGGGLVQPGGSLRLSCAASGFSLSSYSMSWVRQAPGKGLEWIGVIYVNSKTWYADSVKGRFTISKDNSKNTVYLQMNSLRAEDTATYYCARGDAGYTTNSWLWGQGTLVTVSS VL: AFELTQSPSSLSASVGDRVTITCQASESIDNYCSWYQQKPGKAPKLLIYQAFKLASGVPSRFRGSGSGTDFTLTISSLQSEDFATYYCQSYSGISTTAFGGGTEVVIK | 3.8 | 0.0021 | 540000
IgG1-ROR2-A-HC5LC3-FEAR (antibody, Humanized variant) heavy: EVQLLESGGGLVQPGGSLRLSCAASGFSLSSYSMSWVRQAPGKGLEWIGVIYVNSKTWYANWAKGRFTISKDNSKNTVYLQMNSLRAEDTATYYCARGDAGYTTNSWLWGQGTLVTVSSASTKGPSVFPLAPSSKSTSGGTAALGCLVKDYFPEPVTVSWNSGALTSGVHTFPAVLQSSGLYSLSSVVTVPSSSLGTQTYICNVNHKPSNTKVDKRVEPKSCDKTHTCPPCPAPEFEGGPSVFLFPPKPKDTLMISRTPEVTCVVVAVSHEDPEVKFNWYVDGVEVHNAKTKPREEQYNSTYRVVSVLTVLHQDWLNGKEYKCKVSNKALPAPIEKTISKAKGQPREPQVYTLPPSREEMTKNQVSLTCLVKGFYPSDIAVEWESNGQPENNYKTTPPVLDSDGSFFLYSRLTVDKSRWQQGNVFSCSVMHEALHNHYTQKSLSLSPGK VL: AFELTQSPSSLSASVGDRVTITCQASESIDNYLSWYQQKPGKAPKLLIYQAFKLASGVPSRFRGSGSGTDFTLTISSLQPEDFATYYCQSYSGISTTAFGGGTKVEIK | 1.7 | 0.00084 | 510000
IgG1-ROR2-A-HC6LC4-FEAR (antibody, Humanized variant) heavy: EVQLLESGGGLVQPGGSLRLSCTVSGFSLSSYSMSWVRQAPGKGLEWIGVIYVNSKTWYADSVKGRFTISKDNSKNTVYLQMNSLRAEDTATYYCARGDAGYTTNSWLWGQGTLVTVSSASTKGPSVFPLAPSSKSTSGGTAALGCLVKDYFPEPVTVSWNSGALTSGVHTFPAVLQSSGLYSLSSVVTVPSSSLGTQTYICNVNHKPSNTKVDKRVEPKSCDKTHTCPPCPAPEFEGGPSVFLFPPKPKDTLMISRTPEVTCVVVAVSHEDPEVKFNWYVDGVEVHNAKTKPREEQYNSTYRVVSVLTVLHQDWLNGKEYKCKVSNKALPAPIEKTISKAKGQPREPQVYTLPPSREEMTKNQVSLTCLVKGFYPSDIAVEWESNGQPENNYKTTPPVLDSDGSFFLYSRLTVDKSRWQQGNVFSCSVMHEALHNHYTQKSLSLSPGK VL: DIQLTQSPSSLSASVGDRVTITCQASESIDNYLSWYQQKPGKAPKLLIYQAFKLASGVPSRFRGSGSGTDFTLTISSLQPEDFATYYCQSYSGISTTAFGGGTKVEIK | 4.4 | 0.0025 | 570000
IgG1-ROR2-A-HC6LC2-FEAR (antibody, V domains shown, Humanized variant) VH: EVQLLESGGGLVQPGGSLRLSCTVSGFSLSSYSMSWVRQAPGKGLEWIGVIYVNSKTWYADSVKGRFTISKDNSKNTVYLQMNSLRAEDTATYYCARGDAGYTTNSWLWGQGTLVTVSS VL: AFELTQSPSSLSASVGDRVTITCQASESIDNYLSWYQQKPGKAPKLLIYQAFKLASGVPSRFRGSGSGTDFTLTISSLQSEDFATYYCQSYSGISTTAFGGGTEVVIK | 3.9 | 0.0022 | 560000

More lines, now with the values ahead:

Kd [nM] | koff [s⁻¹] | kon [M⁻¹ s⁻¹] | Binder
1.9 | 0.0011 | 550000 | IgG1-ROR2-A-HC5LC4-FEAR (antibody, Humanized variant) heavy: EVQLLESGGGLVQPGGSLRLSCAASGFSLSSYSMSWVRQAPGKGLEWIGVIYVNSKTWYANWAKGRFTISKDNSKNTVYLQMNSLRAEDTATYYCARGDAGYTTNSWLWGQGTLVTVSSASTKGPSVFPLAPSSKSTSGGTAALGCLVKDYFPEPVTVSWNSGALTSGVHTFPAVLQSSGLYSLSSVVTVPSSSLGTQTYICNVNHKPSNTKVDKRVEPKSCDKTHTCPPCPAPEFEGGPSVFLFPPKPKDTLMISRTPEVTCVVVAVSHEDPEVKFNWYVDGVEVHNAKTKPREEQYNSTYRVVSVLTVLHQDWLNGKEYKCKVSNKALPAPIEKTISKAKGQPREPQVYTLPPSREEMTKNQVSLTCLVKGFYPSDIAVEWESNGQPENNYKTTPPVLDSDGSFFLYSRLTVDKSRWQQGNVFSCSVMHEALHNHYTQKSLSLSPGK VL: DIQLTQSPSSLSASVGDRVTITCQASESIDNYLSWYQQKPGKAPKLLIYQAFKLASGVPSRFRGSGSGTDFTLTISSLQPEDFATYYCQSYSGISTTAFGGGTKVEIK
1.8 | 0.00097 | 550000 | IgG1-ROR2-A-HC1LC3-FEAR (antibody, Humanized variant) heavy: QSVLESGGGLVQPGGSLRLSCTVSGFSLSSYSMSWVRQAPGKGLEWIGVIYVNSKTWYANWAKGRFTISKTSTTVDLKITSPTAEDTATYFCARGDAGYTTNSWLWGQGTLVTVSSASTKGPSVFPLAPSSKSTSGGTAALGCLVKDYFPEPVTVSWNSGALTSGVHTFPAVLQSSGLYSLSSVVTVPSSSLGTQTYICNVNHKPSNTKVDKRVEPKSCDKTHTCPPCPAPEFEGGPSVFLFPPKPKDTLMISRTPEVTCVVVAVSHEDPEVKFNWYVDGVEVHNAKTKPREEQYNSTYRVVSVLTVLHQDWLNGKEYKCKVSNKALPAPIEKTISKAKGQPREPQVYTLPPSREEMTKNQVSLTCLVKGFYPSDIAVEWESNGQPENNYKTTPPVLDSDGSFFLYSRLTVDKSRWQQGNVFSCSVMHEALHNHYTQKSLSLSPGK VL: AFELTQSPSSLSASVGDRVTITCQASESIDNYLSWYQQKPGKAPKLLIYQAFKLASGVPSRFRGSGSGTDFTLTISSLQPEDFATYYCQSYSGISTTAFGGGTKVEIK
1.6 | 0.00096 | 590000 | IgG1-ROR2-A-HC1LC1-FEAR (antibody, V domains shown, Humanized variant) VH: QSVLESGGGLVQPGGSLRLSCTVSGFSLSSYSMSWVRQAPGKGLEWIGVIYVNSKTWYANWAKGRFTISKTSTTVDLKITSPTAEDTATYFCARGDAGYTTNSWLWGQGTLVTVSS VL: AFELTQSPSSLSASVGDRVTITCQASESIDNYCSWYQQKPGKAPKLLIYQAFKLASGVPSRFRGSGSGTDFTLTISSLQSEDFATYYCQSYSGISTTAFGGGTEVVIK
5.1 | 0.0028 | 550000 | IgG1-ROR2-A-HC7LC3-FEAR (antibody, Humanized variant) heavy: EVQLLESGGGLVQPGGSLRLSCAASGFSLSSYSMSWVRQAPGKGLEWIGVIYVNSKTWYADSVKGRFTISKDNSKNTVYLQMNSLRAEDTATYYCARGDAGYTTNSWLWGQGTLVTVSSASTKGPSVFPLAPSSKSTSGGTAALGCLVKDYFPEPVTVSWNSGALTSGVHTFPAVLQSSGLYSLSSVVTVPSSSLGTQTYICNVNHKPSNTKVDKRVEPKSCDKTHTCPPCPAPEFEGGPSVFLFPPKPKDTLMISRTPEVTCVVVAVSHEDPEVKFNWYVDGVEVHNAKTKPREEQYNSTYRVVSVLTVLHQDWLNGKEYKCKVSNKALPAPIEKTISKAKGQPREPQVYTLPPSREEMTKNQVSLTCLVKGFYPSDIAVEWESNGQPENNYKTTPPVLDSDGSFFLYSRLTVDKSRWQQGNVFSCSVMHEALHNHYTQKSLSLSPGK VL: AFELTQSPSSLSASVGDRVTITCQASESIDNYLSWYQQKPGKAPKLLIYQAFKLASGVPSRFRGSGSGTDFTLTISSLQPEDFATYYCQSYSGISTTAFGGGTKVEIK
5.6 | 0.0032 | 570000 | IgG1-ROR2-A-HC7LC4-FEAR (antibody, Humanized variant) heavy: EVQLLESGGGLVQPGGSLRLSCAASGFSLSSYSMSWVRQAPGKGLEWIGVIYVNSKTWYADSVKGRFTISKDNSKNTVYLQMNSLRAEDTATYYCARGDAGYTTNSWLWGQGTLVTVSSASTKGPSVFPLAPSSKSTSGGTAALGCLVKDYFPEPVTVSWNSGALTSGVHTFPAVLQSSGLYSLSSVVTVPSSSLGTQTYICNVNHKPSNTKVDKRVEPKSCDKTHTCPPCPAPEFEGGPSVFLFPPKPKDTLMISRTPEVTCVVVAVSHEDPEVKFNWYVDGVEVHNAKTKPREEQYNSTYRVVSVLTVLHQDWLNGKEYKCKVSNKALPAPIEKTISKAKGQPREPQVYTLPPSREEMTKNQVSLTCLVKGFYPSDIAVEWESNGQPENNYKTTPPVLDSDGSFFLYSRLTVDKSRWQQGNVFSCSVMHEALHNHYTQKSLSLSPGK VL: DIQLTQSPSSLSASVGDRVTITCQASESIDNYLSWYQQKPGKAPKLLIYQAFKLASGVPSRFRGSGSGTDFTLTISSLQPEDFATYYCQSYSGISTTAFGGGTKVEIK
4 | 0.0023 | 560000 | IgG1-ROR2-A-HC6LC3-FEAR (antibody, Humanized variant) heavy: EVQLLESGGGLVQPGGSLRLSCTVSGFSLSSYSMSWVRQAPGKGLEWIGVIYVNSKTWYADSVKGRFTISKDNSKNTVYLQMNSLRAEDTATYYCARGDAGYTTNSWLWGQGTLVTVSSASTKGPSVFPLAPSSKSTSGGTAALGCLVKDYFPEPVTVSWNSGALTSGVHTFPAVLQSSGLYSLSSVVTVPSSSLGTQTYICNVNHKPSNTKVDKRVEPKSCDKTHTCPPCPAPEFEGGPSVFLFPPKPKDTLMISRTPEVTCVVVAVSHEDPEVKFNWYVDGVEVHNAKTKPREEQYNSTYRVVSVLTVLHQDWLNGKEYKCKVSNKALPAPIEKTISKAKGQPREPQVYTLPPSREEMTKNQVSLTCLVKGFYPSDIAVEWESNGQPENNYKTTPPVLDSDGSFFLYSRLTVDKSRWQQGNVFSCSVMHEALHNHYTQKSLSLSPGK VL: AFELTQSPSSLSASVGDRVTITCQASESIDNYLSWYQQKPGKAPKLLIYQAFKLASGVPSRFRGSGSGTDFTLTISSLQPEDFATYYCQSYSGISTTAFGGGTKVEIK
3.1 | 0.0017 | 560000 | IgG1-ROR2-A-HC6LC1-FEAR (antibody, V domains shown, Humanized variant) VH: EVQLLESGGGLVQPGGSLRLSCTVSGFSLSSYSMSWVRQAPGKGLEWIGVIYVNSKTWYADSVKGRFTISKDNSKNTVYLQMNSLRAEDTATYYCARGDAGYTTNSWLWGQGTLVTVSS VL: AFELTQSPSSLSASVGDRVTITCQASESIDNYCSWYQQKPGKAPKLLIYQAFKLASGVPSRFRGSGSGTDFTLTISSLQSEDFATYYCQSYSGISTTAFGGGTEVVIK
